T1: CXCR2:YFP fusion protein (UniProt P25025 1-360)
T1 construct: whole, on cells; Transiently expressed in HEK293 cells for BRET; not shown: Yellow fluorescent protein (EYFP)
T1 sequence (looked up): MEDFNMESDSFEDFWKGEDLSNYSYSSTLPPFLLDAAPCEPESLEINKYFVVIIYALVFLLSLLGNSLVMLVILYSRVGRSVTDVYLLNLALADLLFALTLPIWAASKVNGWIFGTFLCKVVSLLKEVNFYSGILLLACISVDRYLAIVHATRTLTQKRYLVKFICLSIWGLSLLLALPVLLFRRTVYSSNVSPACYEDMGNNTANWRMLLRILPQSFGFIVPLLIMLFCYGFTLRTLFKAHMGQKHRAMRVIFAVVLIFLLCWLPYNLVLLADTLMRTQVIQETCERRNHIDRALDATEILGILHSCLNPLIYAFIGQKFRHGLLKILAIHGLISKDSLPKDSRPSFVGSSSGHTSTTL


target: T2, human CXCR4 receptor (wild type) (human, UniProt P61073 1-352); assay: cell-based or functional assay

| IC50, [35S]GTPγS binding, Hela cells, SDF-1 10 nM [nM] | IC50, [35S]GTPγS binding, NIH3T3/CXCR4 cells, SDF-1 10 nM [nM] | inhibition of SDF-1-induced BRET increase (CXCR4 homo-dimers) [%] | inhibition of SDF-1-induced β-arrestin recruitment (BRET) [%] | decrease in SDF-1-induced U937 cells migration [%] | % of inhibition of [35S]GTPγS binding stimulated by SDF-1 (100 nM) [%] | IC50, [35S]GTPγS binding, NIH3T3/CXCR4 cells [nM] | percentage of inhibition of SDF-1-induced BRET increase (CXCR4 homo-dimers) [%] | Binder |
| --- | --- | --- | --- | --- | --- | --- | --- | --- |
| 0.5 | 1.6 | 63 | ~20 |  |  |  |  | anti-CXCR4 Mab 414H5 (antibody, V domains shown) VH: EVKLVESGGGLVQPGGSLRLSCTTSGFTFTDYYMSWVRQSPGKALEWLTFIRNKANGYTTEYSASVKGRFTISRDNSQSILYLQMNTLRAEDSATYYCARDIPGFAYWGQGTLVTVSA VL: DIVMSQSPSSLAVSAGEKVTMSCKSSQSLYNSRTRKNYLAWYQQKPGQSPKLLIYWASTRESGVPDRFTGSGSGTDFTLTITSVQAEDLAVFYCKQSYNLRTFGGGTKLEIK |
| 0.3 | 1.1 | 75 | ~63 | ~50 |  |  |  | anti-CXCR4 chimeric Mab c414H5 (antibody, human IgG1, kappa, V domains shown, they may be whole chains; also called chimeric 414H5) VH: EVKLVESGGGLVQPGGSLRLSCTTSGFTFTDYYMSWVRQSPGKALEWLTFIRNKANGYTTEYSASVKGRFTISRDNSQSILYLQMNTLRAEDSATYYCARDIPGFAYWGQGTLVTVSA VL: DIVMSQSPSSLAVSAGEKVTMSCKSSQSLYNSRTRKNYLAWYQQKPGQSPKLLIYWASTRESGVPDRFTGSGSGTDFTLTITSVQAEDLAVFYCKQSYNLRTFGGGTKLEIKR |
| 0.2 | 1.9 | 69 | 95 | > 80 | 71 |  |  | anti-CXCR4 Mab 515H7 (antibody, V domains shown) VH: EVNLVESGGGLVQPGGSLRLSCATSGFTFTDNYMSWVRQPPGKALEWLGFIRNKANGYTTDYSASVRGRFTISRDNSQSILYLQMNALRAEDSATYYCARDVGSNYFDYWGQGTTLTVSS VL: DIVMSQSPSSLAVSAGEKVTMSCKSSQSLFNSRTRKNYLAWYQQKPGQSPKLLIYWASARDSGVPARFTGSGSETYFTLTISRVQAEDLAVYYCMQSFNLRTFGGGTKLEIK |
|  |  |  | ~94 |  | 86 | 3.86 | ~88 | humanized antibody Hz515H7 VH1 D76N VL2 (antibody, human IgG1, kappa, V domains shown) VH: EVQLVESGGGLVQPGRSLRLSCTASGFTFTDNYMSWVRQAPGKGLEWVGFIRNKANGYTTEYAASVKGRFTISRDNSKSIAYLQMNSLKTEDTAVYYCARDVGSNYFDYWGQGTLVTVSS VL: DIVMTQSPSSLAVSLGERATMSCKSSQSLFNSRTRKNYLAWYQQKPGQSPKLLIYWASARDSGVPARFTGSGSETYFTLTISRVQAEDLAVYYCMQSFNLRTFGQGTKVEIKR |
| 0.6 | 1.5 | 96 | 93 | > 80 | 71 |  |  | anti-CXCR4 chimeric Mab c515H7 (antibody, human IgG1, kappa, V domains shown, they may be whole chains; also called chimeric 515H7) VH: EVNLVESGGGLVQPGGSLRLSCATSGFTFTDNYMSWVRQPPGKALEWLGFIRNKANGYTTDYSASVRGRFTISRDNSQSILYLQMNALRAEDSATYYCARDVGSNYFDYWGQGTTLTVSS VL: DIVMSQSPSSLAVSAGEKVTMSCKSSQSLFNSRTRKNYLAWYQQKPGQSPKLLIYWASARDSGVPARFTGSGSETYFTLTISRVQAEDLAVYYCMQSFNLRTFGGGTKLEIKR |
|  |  |  | ~81 |  | 69 | 4.05 | ~65 | humanized antibody Hz515H7 VH1 D76N VL2.1 (antibody, human IgG1, kappa, V domains shown) VH: EVQLVESGGGLVQPGRSLRLSCTASGFTFTDNYMSWVRQAPGKGLEWVGFIRNKANGYTTEYAASVKGRFTISRDNSKSIAYLQMNSLKTEDTAVYYCARDVGSNYFDYWGQGTLVTVSS VL: DIVMTQSPDSLAVSLGERATMSCKSSQSLFNSRTRKNYLAWYQQKPGQPPKLLIYWASARDSGVPDRFSGSGSETYFTLTISRVQAEDLAVYYCMQSFNLRTFGQGTKVEIKR |
|  |  |  | ~71 |  | 58 | 8.5 | ~21 | humanized antibody Hz515H7 VH1 D76N VL2.3 (antibody, human IgG1, kappa, V domains shown) VH: EVQLVESGGGLVQPGRSLRLSCTASGFTFTDNYMSWVRQAPGKGLEWVGFIRNKANGYTTEYAASVKGRFTISRDNSKSIAYLQMNSLKTEDTAVYYCARDVGSNYFDYWGQGTLVTVSS VL: DIVMTQSPDSLAVSLGERATMSCKSSQSLFNSRTRKNYLAWYQQKPGQPPKLLIYWASARDSGVPDRFTGSGSETYFTLTISSLQAEDLAVYYCMQSFNLRTFGQGTKVEIKR |
|  |  |  | ~82 |  | 66 | 5.19 | ~33 | humanized antibody Hz515H7 VH1 D76N VL2.2 (antibody, human IgG1, kappa, V domains shown) VH: EVQLVESGGGLVQPGRSLRLSCTASGFTFTDNYMSWVRQAPGKGLEWVGFIRNKANGYTTEYAASVKGRFTISRDNSKSIAYLQMNSLKTEDTAVYYCARDVGSNYFDYWGQGTLVTVSS VL: DIVMTQSPDSLAVSLGERATMSCKSSQSLFNSRTRKNYLAWYQQKPGQPPKLLIYWASARDSGVPDRFTGSGSETYFTLTISRVQAEDVAVYYCMQSFNLRTFGQGTKVEIKR |

target: T1, CXCR2:YFP fusion protein; assay: BRET in transiently transfected HEK293 cells
Experimental: The day after, cells were distributed in poly-lysine pre-coated white 96 MW plates in complete culture medium [DMEM supplemented with 10% FBS]. Cells were first cultivated at 37° C. with CO₂ 5% in order to allow cell attachment to the plate. Cells were then starved with 200 μl DMEM/well overnight. Immediately prior to the BRET experiment, DMEM was removed and cells were quickly washed with PBS. […] After incubation for further 10 minutes at 37° C., light-emission acquisition at 485 nm and 530 nm was initiated using the Mithras LB940 multilabel reader (Berthold) (1 s/wavelength/well repeated 15 times at room temperature).
Calculation of BRET ratio was performed as previously described (Angers et al., 2000): [(emission_{530 nm})−(emission_{485 nm})×Cf]/(emission_{485 nm}), where Cf=(emission_{530 nm})/(emission_{485 nm}) for cells expressing the Rluc fusion protein alone under the same experimental conditions. […] For sake of readability, results are expressed in milliBRET units (mBU); mBU corresponds to the BRET ratio multiplied by 1000.

| binding result | Binder |
| --- | --- |
| binds | CXCR4/Rluc fusion protein (receptor, UniProt P61073 1-352, looked up, whole, on cells; Transiently expressed in HEK293 cells for BRET; also called CXCR4 tagged with luciferase; not shown: Renilla reniformis luciferase (Rluc)) MEGISIYTSDNYTEEMGSGDYDSMKEPCFREENANFNKIFLPTIYSIIFLTGIVGNGLVILVMGYQKKLRSMTDKYRLHLSVADLLFVITLPFWAVDAVANWYFGNFLCKAVHVIYTVNLYSSVLILAFISLDRYLAIVHATNSQRPRKLLAEKVVYVGVWIPALLLTIPDFIFANVSEADDRYICDRFYPNDLWVVVFQFQHIMVGLILPGIVILSCYCIIISKLSHSKGHQKRKALKTTVILILAFFACWLPYYIGISIDSFILLEIIKQGCEFENTVHKWISITEALAFFHCCLNPILYAFLGAKFKTSAQHALTSVSRGSSLKILSKGKRGGHSSVSTESESSSFHSS |

target: T2, human CXCR4 receptor (wild type); assay: flow cytometry competition with biotinylated murine 515H7 on CXCR4 transfected NIH3T3 cells

| binding result | Binder |
| --- | --- |
| binds | humanized antibody Hz515H7 VH1 VL1 (antibody, human IgG1, kappa, V domains shown, Human IgG1/kappa format; no back mutations; also called 515H7 VH variant 1 VL variant 1) VH: EVQLVESGGGLVQPGRSLRLSCTASGFTFTDNYMSWVRQAPGKGLEWVGFIRNKANGYTTEYAASVKGRFTISRDDSKSIAYLQMNSLKTEDTAVYYCARDVGSNYFDYWGQGTLVTVSS VL: DIVMTQSPDSLAVSLGERATINCKSSQSLFNSRTRKNYLAWYQQKPGQPPKLLIYWASTRESGVPDRFSGSGSGTDFTLTISSLQAEDVAVYYCMQSFNLRTFGQGTKVEIKR |
| binds | hz515H7 VH1 VL2 (antibody, human IgG1, kappa, human IgG1/kappa format; also called VH variant 1 combined with variant 2 of VL) heavy: not shown light: DIVMTQSPSSLAVSLGERATMSCKSSQSLFNSRTRKNYLAWYQQKPGQSPKLLIYWASARDSGVPARFTGSGSETYFTLTISRVQAEDLAVYYCMQSFNLRTFGQGTKVEIKRTVAAPSVFIFPPSDEQLKSGTASVVCLLNNFYPREAKVQWKVDNALQSGNSQESVTEQDSKDSTYSLSSTLTLSKADYEKHKVYACEVTHQGLSSPVTKSFNRGEC |
| binds | hz515H7 VH1 combined with the chimeric VL (cVL) (antibody, human IgG1, kappa, Humanized VH variant with the chimeric (murine VL, human Ckappa) light chain of c515H7; IgG1/kappa; also called VH1 cVL) heavy: not shown VL: DIVMSQSPSSLAVSAGEKVTMSCKSSQSLFNSRTRKNYLAWYQQKPGQSPKLLIYWASARDSGVPARFTGSGSETYFTLTISRVQAEDLAVYYCMQSFNLRTFGGGTKLEIKRTVAAPSVFIFPPSDEQLKSGTASVVCLLNNFYPREAKVQWKVDNALQSGNSQESVTEQDSKDSTYSLSSTLTLSKADYEKHKVYACEVTHQGLSSPVTKSFNRGEC |

target: T2, human CXCR4 receptor (wild type); assay: SPA competition, Mab 100 nM, labelled competitor [125I]SDF-1 (1 nM), CHO-K1/human CXCR4 membranes
Experimental: CHO-K1 cells, stably and constitutively expressing human CXCR4 receptor were obtained upon transfection of naïve CHO-K¹ cells (ATCC CCL-61) with a mammalian expression vector carrying the whole coding sequence of human CXCR4 receptor (RefSeq NM_{—}003467). Cells were propagated in complete culture medium [DMEM-Ham's F12 supplemented with 5% fetal calf serum (FCS) and 500 μg/ml of geneticin]. Radioligand binding experiments were conducted on cell membranes obtained upon mechanical scrapping of CHO/CXCR4 cells in lysis buffer [Hepes 20 mM, pH 7.4, NaCl 150 mM] followed by centrifugation (10000 g, 15 min). […] Upon centrifugation [1000 g for 10 min.] radioactive counts were measured in a scintillation counter (TopCount, Perkin Elmer).

| % inhibition of [125I]SDF-1 [%] | Binder |
| --- | --- |
| 21 | anti-CXCR4 chimeric Mab c414H5 (antibody, human IgG1, kappa, V domains shown, they may be whole chains; also called chimeric 414H5) VH: EVKLVESGGGLVQPGGSLRLSCTTSGFTFTDYYMSWVRQSPGKALEWLTFIRNKANGYTTEYSASVKGRFTISRDNSQSILYLQMNTLRAEDSATYYCARDIPGFAYWGQGTLVTVSA VL: DIVMSQSPSSLAVSAGEKVTMSCKSSQSLYNSRTRKNYLAWYQQKPGQSPKLLIYWASTRESGVPDRFTGSGSGTDFTLTITSVQAEDLAVFYCKQSYNLRTFGGGTKLEIKR |
| 55 | anti-CXCR4 chimeric Mab c515H7 (antibody, human IgG1, kappa, V domains shown, they may be whole chains; also called chimeric 515H7) VH: EVNLVESGGGLVQPGGSLRLSCATSGFTFTDNYMSWVRQPPGKALEWLGFIRNKANGYTTDYSASVRGRFTISRDNSQSILYLQMNALRAEDSATYYCARDVGSNYFDYWGQGTTLTVSS VL: DIVMSQSPSSLAVSAGEKVTMSCKSSQSLFNSRTRKNYLAWYQQKPGQSPKLLIYWASARDSGVPARFTGSGSETYFTLTISRVQAEDLAVYYCMQSFNLRTFGGGTKLEIKR |
